Results on 1 substance are retold here after paper PMC3946371.

This experiment concerns the target Vaccinia virus D4 with non-cleavable N-terminal His-tag, co-expressed with MBP-A20(1-50) (vaccinia virus (Copenhagen strain)) (UniProt P20536). As to the kind of experiment: SEC-MALS.

“First 50 amino acids of vaccinia virus A20, wild type, released from MBP by TEV (from UniProt P20995 1-50) (domain or fragment)”: the stoichiometry N – broadly, a count of units in the complex or per binding partner – was 1.
